Results on one substance are retold here after patent US20260226168A1.

The target in assay [1] is hGPRC5D (UniProt Q9NZD1). As to the kind of experiment: flow cytometry on MM.1S cells; negative control (EC50 '/': curve could not be fitted). (In flow cytometry, cells or beads pass a laser one at a time.)
The target of assay [2] is hGPRC5D (UniProt Q9NZD1). As to the kind of experiment: flow cytometry on NCI-H929 cells; negative control (EC50 '/': curve could not be fitted).
In assay [3] the target is hGPRC5D (UniProt Q9NZD1). As to the kind of experiment: flow cytometry on RPMI-8226 cells; negative control (EC50 '/': curve could not be fitted).

Chain of hGPRC5D (Q9NZD1 whole entry): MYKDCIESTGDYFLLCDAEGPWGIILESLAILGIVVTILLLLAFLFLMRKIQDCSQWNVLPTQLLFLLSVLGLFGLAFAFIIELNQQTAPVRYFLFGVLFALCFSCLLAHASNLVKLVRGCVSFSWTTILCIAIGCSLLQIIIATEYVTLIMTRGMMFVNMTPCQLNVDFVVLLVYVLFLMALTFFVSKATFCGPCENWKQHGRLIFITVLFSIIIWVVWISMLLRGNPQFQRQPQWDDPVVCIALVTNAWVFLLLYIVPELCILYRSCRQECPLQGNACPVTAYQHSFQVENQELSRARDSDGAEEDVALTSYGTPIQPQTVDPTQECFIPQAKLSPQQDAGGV

In the case of “hIgG1 monoclonal antibody (Biointron, Cat. No. B117901)”, the Top(MFI) with hGPRC5D [1] was 6770; with hGPRC5D [2], 4180; with hGPRC5D [3], 3860.
